This passage reports relative pyrene-actin fluorescence after addition of 2.0 mM MgATP and stoichiometry N (myosin heads per actin) results from doi:10.1101/287425.

This assay has as its target pyrene-labeled actin (rabbit skeletal muscle F-actin) (rabbit) (UniProt P68135). Briefly: other fluorescence titration.

“single-headed S1 fragment of bovine ventricular cardiac myosin (from UniProt Q9BE39 1-1935; P85100 1-199) (complex)”: the relative pyrene-actin fluorescence after addition of 2.0 mM MgATP came to 0.95 and the stoichiometry N (myosin heads per actin) was 1.
